Reference: US20160281093, “METHODS AND COMPOSITIONS FOR INTERFERENCE WITH DNA POLYMERASE AND DNA SYNTHESIS” (GEORGIA STATE UNIVERSITY RESEARCH FOUNDATION, INC., published 2016)

Molecular target: E. coli DNA polymerase I (Escherichia coli, UniProt P00582 P00582:1-928)
Test: EMSA; Kd stated as determined from binding curves but value not given; RNA 50 nM, pol 0-80 nM, 10 mM KCl, 1 mM DTT, 5% glycerol, pH 7.0
Settings: tags: New England Biolabs; label: body-labeled 32P
Procedure: A mixture (5 μL) containing bodily ³²P-labeled RNA 69-mer (50 nM, final), DNA polymerase I (0, 20, 40, 60, or 80 nM), and binding buffer (final: 10 mM KCl, 1 mM DTT, 5% glycerol, pH 7.0) was incubated at room temperature for 30 minutes and then placed at 4° C. overnight. The binding solutions were mixed with the gel loading dye (final: 10 mM KCl, 1 mM DTT, 5% glycerol, 0.001% xylene blue w/v) and then loaded on 10% non-denaturing polyacrylamide gel in the running buffer (5 mM Tris-HCl, 10 mM EDTA, and pH 7.5). The gel was pre-run for 1 hour at 250 volts. After loading the samples, the gel was run with a constant voltage (250 volts) for one hour; all operations were performed in 4° C. cold room. The gel was fixed with 7% acetic acid (in methanol), dried, and scanned. The radioactive bands were quantified by phosphorimager using image quantifying software. […] Dissociation constant was determined from the binding curves.
A mixture (5 μL) containing bodily ³²P-labeled RNA 69-mer (50 nM, final), DNA polymerase I (0, 20, 40, 60, or 80 nM), and binding buffer (final: 10 mM KCl, 1 mM DTT, 5% glycerol, pH 7.0) was incubated at room temperature for 30 minutes and then placed at 4° C. overnight. […] The radioactive bands were quantified by phosphorimager using image quantifying software. […] Dissociation constant was determined from the binding curves.

E. coli DNA polymerase I, sequence (P00582 whole entry, one chain of several): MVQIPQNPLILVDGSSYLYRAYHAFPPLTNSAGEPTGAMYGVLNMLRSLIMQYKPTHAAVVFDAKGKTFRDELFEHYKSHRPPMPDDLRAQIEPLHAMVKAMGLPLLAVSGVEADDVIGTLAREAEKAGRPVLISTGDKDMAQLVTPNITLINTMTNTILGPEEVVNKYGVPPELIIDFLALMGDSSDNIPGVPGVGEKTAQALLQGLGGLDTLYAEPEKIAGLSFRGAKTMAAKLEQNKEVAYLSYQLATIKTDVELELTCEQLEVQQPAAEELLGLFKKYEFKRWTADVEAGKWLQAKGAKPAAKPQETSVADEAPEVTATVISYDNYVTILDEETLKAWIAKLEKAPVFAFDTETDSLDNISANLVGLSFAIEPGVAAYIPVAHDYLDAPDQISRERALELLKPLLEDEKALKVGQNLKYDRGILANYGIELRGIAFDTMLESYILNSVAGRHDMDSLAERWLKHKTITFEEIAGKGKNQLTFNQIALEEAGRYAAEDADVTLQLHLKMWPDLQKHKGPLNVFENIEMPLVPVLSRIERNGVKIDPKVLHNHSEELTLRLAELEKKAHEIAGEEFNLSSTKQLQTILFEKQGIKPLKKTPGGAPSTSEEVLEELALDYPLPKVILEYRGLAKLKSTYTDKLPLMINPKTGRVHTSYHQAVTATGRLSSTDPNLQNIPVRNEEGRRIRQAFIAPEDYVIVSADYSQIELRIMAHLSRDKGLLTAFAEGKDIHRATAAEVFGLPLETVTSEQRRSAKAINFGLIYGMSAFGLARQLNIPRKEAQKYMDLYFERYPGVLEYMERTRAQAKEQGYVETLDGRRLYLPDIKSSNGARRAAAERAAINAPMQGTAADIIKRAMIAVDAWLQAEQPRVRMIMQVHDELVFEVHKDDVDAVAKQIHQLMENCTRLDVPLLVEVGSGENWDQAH

B1: RNA-69mer (ssRNA)
RNA: GGGAGCCCUGUCACCGGAUGUGCUUUCCGGUCUGAUGAGUCCGUGAGGACAAAACAGGGCUCCCGAAUU
B1: binds.
